According to the supplement of paper PMC11865577:

The sequences below were run on TO-N3 (biotin conjugate) (assay: pull-down binding Z-score (relative to library population); higher = stronger binding). Settings: RNA library: Library-2.
In short: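 A heat-folded, dye-end-labelled (Cy5 or Cy3) RNA library (1 μg, phosphate/NaCl/KCl buffer) was exposed for 60 min at 25 °C to streptavidin beads holding 100 pmol of biotin-conjugated small molecule. RNA retained on the beads was eluted in hot SDS and hybridised to a DNA barcode microarray for 20 h at 55.5 °C. Binding scores were Z-scores against the library mean and standard deviation, calculated after subtracting beads alone and taking trimmed means of replicate probes.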

Point of comparison: “GCUGAAAUUGUUGACACUGUGAGUGCUUUGGUUUAUGAUAAUAAGCUUAAAGCACAUAAAGACAAAUCAGC”, “pull-down binding Z-score” value -0.634. Against it:
- GCGCAGCCAGAAACUGGCGGCGC [mismatch-AG] — higher, 0.0293
- GCGCCGCCAGAAACUGGCAGCGC [mismatch-CA] — higher, 0.225
- GCGCCGCCAGAAACUGGCCGCGC [mismatch-CC] — lower, -1.08
- GCGCCGCCAGAAACUGGCUGCGC [mismatch-CU] — higher, 0.00381
- GCGCGGCCAGAAACUGGCAGCGC [mismatch-GA] — lower, -1.33
- GCGCGGCCAGAAACUGGCGGCGC [mismatch-GG] — higher, -0.309
- GCGCGGCCAGAAACUGGCUGCGC [mismatch-GU] — higher, 0.831
- GCGCUACUGCAACGAUACCGAUACAAGCCUCACUCCCUUUCGGAUGGCUUAUUGUUGGCGUUGCACUUCUUGCUGUUUUUCAGAGCGC — higher, -0.282
- GCGCUGCCAGAAACUGGCAAAAGCGC [bulge-AAA] — lower, -0.936
- GCGCUGCCAGAAACUGGCAAAGCGC [bulge-AA] — higher, -0.403
- GCGCUGCCAGAAACUGGCAAGCGC [bulge-A] — higher, -0.493
- GCGCUGCCAGAAACUGGCAGCGC [full-UA] — higher, -0.599
- GCGCUGCCAGAAACUGGCCAGCGC [bulge-C] — lower, -0.667
- GCGCUGCCAGAAACUGGCCCAGCGC [bulge-CC] — higher, -0.282
- GCGCUGCCAGAAACUGGCCCCAGCGC [bulge-CCC] — higher, -0.283
- GCGCUGCCAGAAACUGGCCGCGC [mismatch-UC] — lower, -0.905
- GCGCUGCCAGAAACUGGCGAGCGC [bulge-G] — higher, -0.593
- GCGCUGCCAGAAACUGGCGGAGCGC [bulge-GG] — lower, -0.873
- GCGCUGCCAGAAACUGGCGGCGC [mismatch-UG] — higher, 0.624
- GCGCUGCCAGAAACUGGCGGGAGCGC [bulge-GGG] — higher, 0.688
- GCGCUGCCAGAAACUGGCUAAGCGC [bulge-UA] — lower, -0.911
- GCGCUGCCAGAAACUGGCUAGCGC [bulge-U] — higher, -0.0999
- GCGCUGCCAGAAACUGGCUCAGCGC [bulge-UC] — higher, -0.584
- GCGCUGCCAGAAACUGGCUGAGCGC [bulge-UG] — higher, 0.392
- GCGCUGCCAGAAACUGGCUGCGC [mismatch-UU] — higher, -0.231
- GCGCUGCCAGAAACUGGCUUAAGCGC [bulge-UUA] — higher, -0.128
- GCGCUGCCAGAAACUGGCUUAGCGC [bulge-UU] — higher, 0.691
- GCGCUGCCAGAAACUGGCUUCAGCGC [bulge-UUC] — lower, -0.796
- GCGCUGCCAGAAACUGGCUUGAGCGC [bulge-UUG] — higher, 0.932
- GCGCUGCCAGAAACUGGCUUUAGCGC [bulge-UUU] — higher, -0.24
- GCGCUUCAGCGUUCUUCGGAAUGUCGCGC — lower, -0.787
- GCGCUUUAGGUCUACACGGGCCGAAGCUAACGCGUUAAGCGC [3-way model-5_mrRNA] — higher, 0.0607
- GCUAAAGAUACUACUGAAGCCUUUGAAAAAAUGGUUUCACUACUUUCUGUUUUGC [SHAPE_invitro_SARS-CoV-2_Motif_217] — higher, 0.166
- GCUAAAUUGUUACAUAAACCUAUUGUUUGGCAUGUUAACAAUGC [SHAPE_invitro_SARS-CoV-2_Motif_124] — lower, -0.96
- GCUAAAUUGUUACAUAAACCUAUUGUUUGGCAUGUUAACAAUGCAACUAAUAAAGCCACGUAUAAACCAAAUACCUGGUGUAUACGUUGUCUUUGGAGC — lower, -1.4
- GCUAACAAACAUGCUGAUUUUGACACAUGGUUUAGCCAGCGUGGUGGUAGU — higher, 0.157
- GCUAGAAAAUCAGC [SHAPE_invivo_SARS-CoV-2_Motif_531] — higher, -0.0963
- GCUAGCUCUUGGAGGUUCCGUGGCUAUAAAGAUAACAGAACAUUCUUGGAAUGCUGAUCUUUAUAAGCUCAUGGGACACUUCGCAUGGUGGACAGC — higher, 0.974
- GCUAGUCUUAAUGGAGUCACAUUAAUUGGAGAAGC — higher, 0.474
- GCUAGUGGGGGACAACCAAUCACUAAUUGUGUUAAGAUGUUGUGUACACACACUGGU — higher, 1.03
- GCUAUAUGAUGC [IAV_invivo_PA_3_Motif_14+IAV_invivo_PA_3_Motif_14] — higher, -0.106
- GCUAUCUAACCUUAACUUGCCUGGUUGUGAUGGU [SHAPE_invivo_SARS-CoV-2_Motif_361] — higher, 0.716
- GCUAUGCAAAUGGC — lower, -0.847
- GCUAUGGGUAUUAUUGCUAUGUCUGCUUUUGCAAUGAUGUUUGUCAAACAUAAGCAUGCAUUUCUCUGUUUGUUUUUGUUACCUUCUCUUGCCACUGUAGC — lower, -0.98
- GCUCACCGUGCCCAGUGAGC [IAV_invivo_M1_M2_7_Motif_5+IAV_invivo_M1_M2_7_Motif_5] — higher, 0.0761
- GCUCAGGAUGGUAAUGCUGCUAUCAGC — higher, 0.203
- GCUCUACAAGAUGCUUAUUACAGAGC — higher, 1.52
- GCUCUCUGAUGC [IAV_invivo_NP_5_Motif_10+IAV_invivo_NP_5_Motif_10] — lower, -0.672
- GCUGACACUACUGAUGCUGUCCGUGAUCCACAGACACUUGAGAUUCUUGACAUUACACCAUGUUCUUUUGGUGGUGUCAGU [SHAPE_invivo_SARS-CoV-2_Multi_58_ComplexLevel_1] — higher, 0.456
- GCUGAGGCUUCUAAGAAGCCUCGGC — lower, -1.05
- GCUGAGUUGCCAUUCAGC [IAV_invivo_NA_6_Motif_18+IAV_invivo_NA_6_Motif_18] — higher, -0.304
- GCUGCACAAAAAGC [IAV_invivo_NP_5_Motif_13+IAV_invivo_NP_5_Motif_13] — lower, -1.08
- GCUGGCCUUGAAGCCCCUUUUCUCUAUCUUUAUGCUUUAGUCUACUUCUUGCAGAGUAUAAACUUUGUAAGAAUAAUAAUGAGGCUUUGGCUUUGC — lower, -0.969
- GCUGGUAAUGUUCAACUCAGGGUUAUUGGACAUUCUAUGC [SHAPE_invivo_SARS-CoV-2_Motif_203] — higher, -0.313
- GCUGGUCUGACUCACAUGAUGAUCUGGC [IAV_invivo_NP_5_Motif_8+IAV_invivo_NP_5_Motif_8] — higher, -0.454
- GCUGGUGCACUUGCCAGU [IAV_invivo_M1_M2_7_Motif_8+IAV_invivo_M1_M2_7_Motif_8] — higher, -0.408
- GCUGUAGUGUUACUAAUCCUUAUGACAGC — higher, -0.197
- GCUGUGAGUUGGAUACUUACCUG [U1snRNP5ss-13] — higher, 0.947
- GCUGUUGGUACCAAUUUACCUUUACAGC [SHAPE_invitro_SARS-CoV-2_Motif_335] — higher, 0.215
- GCUGUUUAAUAGGGGCUGAACAUGUCAACAACUCAUAUGAGUGUGACAUACCCAUUGGUGCAGGUAUAUGCGCUAGUUAUCAGACUCAGACUAAUUCUCCUCGGC — higher, 0.298
- GCUUCAAGAGAGC — higher, -0.0808
- GCUUCCACAAGUGCUUUUGUGGAAACUGUGAAAGGUUUGGAUUAUAAAGCAUUCAAACAAAUUGUUGAAUCCUGUGGUAAUUUUAAAGUUACAAAAGGAAAAGC — higher, -0.508
- GCUUCCACUGAGAAGU [DMSMaPseq_invitro_SARS-CoV-2_Motif_384] — lower, -1.1
- GCUUCUAGAAAGUGAACUCGUAAUCGGAGCUGUGAUCCUUCGUGGACAUCUUCGUAUUGCUGGACACCAUCUAGGACGC — higher, 0.335
- GCUUGAAGUGGAGC [IAV_invivo_NS1_NEP_8_Motif_14+IAV_invivo_NS1_NEP_8_Motif_14] — higher, -0.23
- GCUUGCAUACGUAGACCAUUCUUAUGUUGUAAAUGCUGUUACGACCAUGUCAUAUCAACAUCACAUAAAUUAGUCUUGUCUGUUAAUCCGUAUGUUUGCAAUGC [DMSMaPseq_invitro_SARS-CoV-2_Motif_294] — higher, -0.546
- GCUUGGAGAAAAGC [SHAPE_invitro_SARS-CoV-2_Motif_326] — lower, -0.705
- GCUUGUCACACCGUUUCUAUAGAUUAGCUAAUGAGUGUGCUCAAGU — higher, -0.0415
- GCUUUAGUCUACUUCUUGCAGAGUAUAAACUUUGUAAGAAUAAUAAUGAGGC [SHAPE_invitro_SARS-CoV-2_Motif_467] — higher, 0.0166
- GCUUUCUUUGGC [IAV_invivo_NS1_NEP_8_Motif_2+IAV_invivo_NS1_NEP_8_Motif_2] — higher, -0.43
- GCUUUGAUAUGGAACGUUAAAGAUUUCAUGUCAUUGU — higher, -0.204
